# Data reported in paper PMC10472834 (Cell metabolism, 2021).
# B1: ME2-Flag catalytic-inactive mutant (CM), stably expressed in MOLM14 cells (natural protein)
# chain: not shown
# Biological target: the molecule itself
# Test: cross-linking
protein,measurement,value
B1,stoichiometry N,2
